Results published in article PMC2924745 (Nature structural & molecular biology, 2010).
Blank lines part the entries; values can stand above or below the molecule they belong to.

Columns and labels:
[1] = target: MetIN, the E. coli D/L-methionine ABC importer (His-tagged) (Escherichia coli) (UniProt P30750); experiment: SPR
[2] = target: T1, BtuCD, the E. coli vitamin B12 ABC transporter (His-tagged) (Escherichia coli, UniProt P06609;P06611); experiment: co-sedimentation
T1 sequence 1: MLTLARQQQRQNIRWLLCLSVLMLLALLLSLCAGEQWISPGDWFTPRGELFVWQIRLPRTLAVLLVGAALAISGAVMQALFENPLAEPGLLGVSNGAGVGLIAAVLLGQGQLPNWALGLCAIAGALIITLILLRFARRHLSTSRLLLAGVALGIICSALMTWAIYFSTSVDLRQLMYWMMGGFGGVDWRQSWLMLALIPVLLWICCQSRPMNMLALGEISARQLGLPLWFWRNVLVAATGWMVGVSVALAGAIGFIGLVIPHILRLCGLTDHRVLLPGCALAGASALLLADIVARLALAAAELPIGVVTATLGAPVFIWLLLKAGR
T1 sequence 2: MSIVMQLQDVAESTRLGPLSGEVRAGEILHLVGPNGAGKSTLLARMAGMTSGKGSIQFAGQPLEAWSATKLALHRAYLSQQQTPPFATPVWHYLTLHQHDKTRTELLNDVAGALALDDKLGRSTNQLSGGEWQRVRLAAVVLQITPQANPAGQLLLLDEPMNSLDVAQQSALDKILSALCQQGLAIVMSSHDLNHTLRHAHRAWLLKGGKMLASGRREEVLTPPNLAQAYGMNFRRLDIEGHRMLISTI

[3] = target: T1, BtuCD, the E. coli vitamin B12 ABC …; experiment: cell-based or functional assay

Chain of MetIN, the E. coli D/L-methionine ABC importer (His-tagged) (Escherichia coli) (P30750 whole entry, chain 1 of 2): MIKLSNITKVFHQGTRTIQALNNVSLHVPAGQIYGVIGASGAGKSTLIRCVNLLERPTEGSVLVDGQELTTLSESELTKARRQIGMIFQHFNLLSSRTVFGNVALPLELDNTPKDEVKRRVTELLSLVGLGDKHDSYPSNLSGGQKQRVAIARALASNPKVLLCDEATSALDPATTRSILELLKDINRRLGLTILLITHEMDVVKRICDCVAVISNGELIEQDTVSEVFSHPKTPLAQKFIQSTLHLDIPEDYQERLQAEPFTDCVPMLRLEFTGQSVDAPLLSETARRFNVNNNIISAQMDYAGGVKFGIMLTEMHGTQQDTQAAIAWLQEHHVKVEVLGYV
Chain of MetIN, the E. coli D/L-methionine ABC importer (His-tagged) (Escherichia coli) (P31547 whole entry, chain 2 of 2, further chain): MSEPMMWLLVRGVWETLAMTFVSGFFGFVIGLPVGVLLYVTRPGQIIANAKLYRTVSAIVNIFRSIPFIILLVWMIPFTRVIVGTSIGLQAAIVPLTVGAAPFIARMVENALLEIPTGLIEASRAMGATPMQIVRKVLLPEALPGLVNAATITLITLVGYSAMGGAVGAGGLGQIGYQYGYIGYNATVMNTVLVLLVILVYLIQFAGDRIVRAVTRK

Kd [1]: 74 µM
Molecule: MetQ, the binding protein of the E. coli D/L-methionine importer (from UniProt P28635 23-271) (natural protein)

Kd [2]: < 0.02 µM
stimulation of ATP hydrolysis rate of BtuCD [3]: < 2 fold
B1: BtuF, the vitamin B12 binding protein of E. coli, with a C-terminal FLAG tag (natural protein)
chain: APRVITLSPANTELAFAAGITPVGVSSYSDYPPQAQKIEQVSTWQGMNLERIVALKPDLVIAWRGGNAERQVDQLASLGIKVMWVDATSIEQIANALRQLAPWSPQPDKAEQAAQSLLDQYAQLKAQYADKPKKRVFLQFGINPPFTSGKESIQNQVLEVCGGENIFKDSRVPWPQVSREQVLARSPQAIVITGGPDQIPKIKQYWGEQLKIPVIPLTSDWFERASPRIILAAQQLCNALSQVD
